Laboratory results as given in IntAct's records for PubMed 16888620.

Molecular target: sgk3_human SGK3 (UniProt Q96BR1)
Sequence (Q96BR1 whole entry): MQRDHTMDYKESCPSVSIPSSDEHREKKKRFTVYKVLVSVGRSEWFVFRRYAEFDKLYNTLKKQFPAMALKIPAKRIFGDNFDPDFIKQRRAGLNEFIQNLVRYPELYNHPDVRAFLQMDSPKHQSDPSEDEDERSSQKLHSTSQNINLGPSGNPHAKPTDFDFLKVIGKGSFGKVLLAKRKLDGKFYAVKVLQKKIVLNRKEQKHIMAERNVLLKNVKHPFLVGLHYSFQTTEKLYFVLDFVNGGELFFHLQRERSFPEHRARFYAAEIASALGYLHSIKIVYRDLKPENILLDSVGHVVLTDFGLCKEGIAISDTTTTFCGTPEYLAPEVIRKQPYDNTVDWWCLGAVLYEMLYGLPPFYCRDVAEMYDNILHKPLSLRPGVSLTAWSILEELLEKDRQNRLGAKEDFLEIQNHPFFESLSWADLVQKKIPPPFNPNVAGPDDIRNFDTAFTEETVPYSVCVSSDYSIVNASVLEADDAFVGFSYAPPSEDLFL

Substance: E3 ubiquitin-protein ligase Itchy homolog (Homo sapiens), Q96J02 T385A
- effect of a mutation on the interaction: decreasing interaction strength

Substance: E3 ubiquitin-protein ligase Itchy homolog (Homo sapiens), Q96J02 S450A
- effect of a mutation on the interaction: disrupting interaction strength
